Experimental data reported in a protein production outcome set (Wang et al. 2014).

Assay: label from the status in PepcDB records
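Also: failed if final PepcDB status was selected cloned or expressed and not failed if soluble or beyond.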

| Sequence | protein production |
| --- | --- |
| TVNVTTKKTPPSQPPGNVVWNATDTKVLLNWEQVKAMENESEVTGYKVFYRTSSQNNVQVLNTNKTSAELVLPIKEDYIIEVKATTDGGDGTSSEQIRIPRITS | not failed |
| MGAVGRGRRMSERHLRRSTHKVGDITLGAVHRLNCHCGAVQIDLDLPHGLVDPRRCDCSMCRRRGAIVASVPLQGLHVRQGEDVLRLYQFNTHAAAHYFCGVCGIYTHHRRRSNPNEYGYNVGCLEGVNPYALNITVPVEDGIHHPADRVAPQLEHHHHHH | failed |
| MAPDQQVPATALGKSSRISLDGRRSERSVILADGSMHSLTLLHPGVYTLSSEVAETIRVLSGMAYYHAEGANDVQELHAGDSMVIPANQSYRLEVMEPLDYLLSS | not failed |
| ENPRNVGSLDKTSKNVGTGLVGAPACGDVMKLQIQVDEKGKIVDARFKTFGCGSAIASSSLATEWVKGKTVEEALTIKNTDIAKELCLPPVKLHCSMLAEDAIKAALADYKLKQESK | not failed |
| MSEIILVTGAAGQLGQRVIHHLIETYKVAPGNIVAATRSPEKLSELEKKGVVTRKADFDDAAGLEKAFAGVDRLLIISTDALDTPGKRLAQHKGAVAAAVKSGVKHIAYTSMPGPDNSLVTFAPDHLGSENAIKASGIAHTIIRDAWYHDNYLHGMPHNLQGGKWYSATGDGKISTISRDDCALAIAAALASGTSESATYTVTGTQSLNSRQIAAIVSDVAGKPLEVIDVTDEQLGQGMRGAGLPGFVADMLVSADANTRAGKFDIVTEDFTKLTGKQPQPLKDFFVEHKATLTA | failed |
| MTLTPQELQTYLAALVRQNLQIATMIWGPPGVGKSSVVAQVARQHDLDFVDVRLSQLAPTDLRGLPVPEADAQGSGVSRWYPPEFLPRAGAGILFLDEVNMAPPTMQGMAQQLILDRRVGSYELPDGWFVWAAGNRKEDRASVFDMPAPLANRFLHLTVRPDFDSWRSYALAKGLHEHVIAFLTFRPELLWRLDPQQPAWPSPRSWEMAAQLHRAGLDASSAIGEAAGAEFAAFVRLFEQLPDLGTVLSGAGAGLKLPDEPSVRYAAVVGLAARAADAEEAYRAFTWLADSAGPEWLQLYVATLVSKFQALGQLGELAGLLGRDPRLAELVQGALSLAEGLEHHHHHH | failed |
| MRAHGRRVSKRQPDSPGRLRGAFGSRLHLSPLTRLPARPIWRPRAGCAVPLAGPGCDPAGFMLKSPSFPFSAPAMLRHLPMTYCAIDFGTSNSAVALPDGDGMRLAPVEGDHLTLPTAIFFNNDEQTVEYGRAALASYIDGFDGRLMRSMKSILGSPLAETTTDLGDGSAMAYTEIIARFLTHLKRKAEARAGAPIGRAVLGRPVFFVDEDPRADRLAQDQLEAAARSVGFTDVHFQYEPIAAAFDYESRQQAERLVLVADIGGGTSDFSLVRVGPERMARLERKDDVLAHHGVHVAGTDYDRRVELAAILPAFGYRALDPEGRELPNRIYFDLATWHLINTVYTPKRLGELKLMKHLYQDGRQHDRLMSVVEQRLGHALMARAEEAKIGVAAGGETMIDLNDVEEDLQIAFDAERLVEASVDDTARIVDAARETVRLAGVAPRDLGALYFTGGSTGLAFLSGALAGAFPDAQPVFGDRLASVATGLGIHAQRLFG | failed |
| MRFCIMKKAVVLLSGGLDSTTCLALAKSQGFACYALSFSYGQRHSAELCAATRIAKHMGAADHKIVTLDIALFGGSALTDASIEVPEFKESPEIPVTYVPARNTIFLAMALGYAESIGARDIFIGASSVDYSHYPDCRPEFIESFQSLANLATKAGIEGDRFTINAPLQYLSKVQTIQLGTELGVDYGLTVSCYQANEAGEACGQCDSCTFRKRGFKSAGVDDPTRYQKCVHI | failed |
| LADVKHAQSQALFKEHMLETIFNAIPDLFFLMEVDGMIVDYHTGDQKNLYVAPHQFIGKRMTDLLPQEVVSKFQTHVDKILQQEGMITFEYELTMPHGLVHFEARMSYLPEYNQIVLIIRDIS | failed |
| MSDIVLEVQSLHVYYGAIHAIKGIDLKVPRGQIVTLIGANGAGKTTTLSAIAGLVRAQKGKIIFNGQDITNKPAHVINRMGIALVPEGRRIFPELTVYENLMMGAYNRKDKEGIKRDLEWIFSLFPRLKERLKQLGGTLSGGEQQMLAIGRALMSRPKLLMMDEPSLGLAPILVSEVFEVIQKINQEGTTILLVEQNALGALKVAHYGYVLETGQIVLEGKASELLDNEMVRKAYLGVA | not failed |
| LDALRRYHRQTLQELPMGVCSLAKDQEILMWNKAMEELTGIPAQHVVGSRLSTITNPWKDLLQGFINLPDEHLHKQHLALDGQTRWLNLHKAAIDEPLAPGNSGLVLLVEDLTETQTLEDKLVHSERLASIGRLAAGVAHEIGNPITGI | failed |
| EIDYTAYPWFAGNMERQQTDNLLKSHASGTYLIRERPAEAERFAISIKFNDEVKHIKVVEKDNWIHITEAKKFDSLLELVEYYQCHSLKESFKQLDTTLKYPYK | failed |
| MNVTPWEVEGVIDYSKLIEEFGMQPFSEVLPEIDNPHILMRRGAIFGHRDYWRIIEAMQKKEPWAVMSGFMPSGLPHFGHKMTMDEIVWHQSAGGKAFVAIADMEAHSVRGLSWEKTRELGMLYIKSIIALGLREDAVIYFQSKSSHVKDLAFELSAEVNFSELRAIYGFNSDTSLAKMFVTAIQAADILHPQLSDFGGPKPVVVPVGADQDPHMRLTRDLAARISIFSFEPVEGGVRVRSRKGAEYLSSLRDLEFDKKIYEEHMDIFGEAEEIERAVRKIEVEIGGFAFIPPSSTYHRFTTGLTGGKMSSSKPESYISLLDPPEEGAKKVMKAFTGGRATAEEQRRLGGEPDRCVVFELYSFHLIDSDEELNQIEAECREGRLLCGKCKKMAAELVKSFLKEHQEKMEAVDLSNYTIIG | failed |
| MKRKAFLALGFLALGLGVSQVGPFRARLEAAIQTGGEAFAQVMLSQDKAQALCTQYRDKLPPELVPAFLAEQRALIKYPASGKLMGDWKNGEKVFTDPKRGNCYACHQGDPREVAYGTMGPSLTGYGQRGLSEAVVRYTYEKIYNAWAFVPCSLMYRGGVHGYFTPEETADLVAYLLSPESPINRR | failed |
| MVTLQAFQPLIDTVQGSLLLASPDDGHIYCANQLACILLASPHSELLKSSVYDFLPDKNEAYTICRELAGNNMIYNRGMQLSTSTGRIFDVQLSARRISLDQVPLLVVSFSDRTETKVLGQLLDFERQLVERSLSIVKTLKEEGRQNDDEDKLTGVVGMHRLMSSAHSETSRAKRYGGSLSGLALELVNVPEMVPREDDGSAYGHLIRLAGSLCLQSSRDSDLVARRSANTFVILLPHTAIGGANEMGRRLIKSLRQLTFLYQGTEHQAAACVGISALRPEESSPTPMLERLEEALKKARDGGANYIIQLP | failed |
| MNNSINHKFHHISRAEYQELLAVSRGDAVADYIIDNVSILDLINGGEISGPIVIKGRYIAGVGAEYTDAPALQRIDARGATAVPGFIDAHLHIESSMMTPVTFETATLPRGLTTVICDPHEIVNVMGEAGFAWFARCAEQARQNQYLQVSSCVPALEGCDVNGASFTLEQMLAWRDHPQVTGLAEMMDYPGVISGQNALLDKLDAFRHLTLDGHCPGLGGKELNAYITAGIENCHESYQLEEGRRKLQLGMSLMIREGSAARNLNALAPLINEFNSPQCMLCTDDRNPWEIAHEGHIDALIRRLIEQHNVPLHVAYRVASWSTARHFGLNHLGLLAPGKQADIVLLSDARKVTVQQVLVKGEPIDAQTLQAEESARLAQSAPPYGNTIARQPVSASDFALQFTPGKRYRVIDVIHNELITHSHSSVYSENGFDRDDVSFIAVLERYGQRLAPACGLLGGFGLNEGALAATVSHDSHNIVVIGRSAEEMALAVNQVIQDGGGLCVVRNGQVQSHLPLPIAGLMSTDTAQSLAEQIDALKAAARECGPLPDEPFIQMAFLSLPVIPALKLTSQGLFDGEKFAFTTLEVTELEHHHHHH | not failed |
| MRINTRRKKWAAVAVVTLVSVIASVIVTVIVVGTLDPQSLRPAIIVPLLVAPLATHWGAERLLEIDKLNQQLAHLNRIDQMTQLYNRACLLEKLEQEPEEAGMILIADIDHFKQINDTYGHDVGDLVIIEVARVLQRSSLPEGIAARFGGEEFVIYVPRLDLEAAEFRAEAIRQAVEAQSVMIDGRKLSCTISIGIEIRQMQENVGDVLKRADEALYRAKAQGRNQVVAARRLARAGKSRETAQARRAP | failed |
| MKTIAVLLTALLLATGCGNKESTGETASDEPEIVMMDESTSVGELPSILKEGLSNKEQDELKKQIMPILDDGLTPEQRFLNLRKDAEAGNAEAQNSLGSMYFSGEAISRDAQGKVKDKDPETAAGWFFRAAEQGHAGAQFNLGLLYFSGEGVTRDTAKAVELFTKSAEQGNIDAQNNLGVIYLMGEGVKQNTDKAIEWFEKAAEQGNEEAIKNLEAVRASQQDSKEAADKQK | failed |
| MNFISDQVKKLSSSTPEEPDHNKPVEGTETATRPATNAELMASAKVVAEAAQAAARNESDKLDKGKVAGASADILDAAEKYGKFDEKSSTGQYLDKAEKYLNDYESSHSTGAGGPPPPTSQAEPASQPEPAAKKDDEESGGGLGGYAKMAQGFLK | failed |
| MCKLIKCELLKLKSMLGAILAFFFPLLLVSIGLLNIYTGSVKISGTSEMWNAIYVQSSSLYGGILFPVFLSALVSLQWRVEFKNNNINNILITDKSHKDIYLSKIFSTFVIAFINIILYIIIIFISVKVLLPKETVKAFIFYGPIIGLLFSLPLICIQHFLSMNFKNFALPLVIGIVLSLPNFVASCYSFSTFIPYSYICKGMFFNVKNSLNVECPIYIFILTALIFVASVSLGTKVFKNKEFR | failed |
| MIESRRFVSDVMITFIASLVNIIISFPISVVIGRYLGVEDLGAYRLVFSIYGLSLLFANAGIPAAVIKQISEIKEDPKSTVKVISSSFFTSSLLGIFFLIFYLLFAETLSNIFGTPELADLIRIISLSFPFSVTGSTMLATLNGFRDMKKHATAILIQSVLMLFFTILSITFGYGVNGAVGASVISSIGYCVYLLRYLGKYIKIINFSDAVHYSKSMITFGLQTVVANAVNLINFQADTIMVGYFLTKTDVGFYSVAVLLAKLLWLIPDSIQKITYPLISEHYNNSGTEYINRAIETIMKYTMCISIVIGSGMIFYGEGIITSIYGASFIESVNPYYILIVGTMIFSIVKCVNSLFASIGRVDLFAKIPTYSAAVNILLNLVLIPIYHINGAAIATSTSLLIYVLVMIYYMKKLVNIHINVIWYSKAIFLFAMLIIINYILSLFTPFNSSGILTVSLGCLLLWIYILEPSDRVFFLSLVTKLKSLSLN | failed |
| MNISEMDSFDVTGFVIRTTNADEVSPSTAKIGELWARFYANAAPKLNEKSKVFGLYTNYGSDFTGAFDVIACSDTLSPEILPDSVKVTVAPGKYVTFSATGEMPQVVIELWGDVWRYFGSESCPYKRAYTTDFEYYKSASEVEISIAIK | failed |
| MNNSETPAPGPDSLLALAFPSDPQVSPDGKQVAFVLAQISEEDPAKPDKDFARPRYRSGLWLSEGGAARPLTHAETGRGDSAPRWSPDGQNLAFVRSAGEVKAALMLLPLKGGEARRVTHFKNGVSGPQWSPDGRFIAFTTTADTEDKRDERGEARVLTRPVYRANGADWLPERPAALWLYDVEADKLREWYAPEIGIGALSWWPDSRGVLIVQSEDEWQASQWRQDVYDLPLPTADAPAAPQKLLDWNSAAHGLAPHPDGQRFALIGRPAGKGNTEHAHLYLIENGQHRRLDTGHDHPVGDAVGGDCHVGAFPEGPRWLDGDTLLFSSTVRGSVGLFTAHIGGGVKAYDHDPQGVISAFTANEHGVALIRESATRFPEVELNGQRVTDLHARFPFPVREPQRVTFETELGEGEGWVLLPEGEQKVPALLNIHGGPHTDYGHGFTHEFQLMAARGYGVCYSNPRGSVGYGQAWVDAIYGRWGTVDADDLLNFFDRCLEAVPRLDAAKTAVMGGSYGGFMTNWITGHTTRFQAAITDRCISNLISFGGTSDIGLRFWDDELGLDFSRRADALKLWDLSPLQYVENVKTPTLIVHSVLDHRCPVEQAEQWYAALHKHQVPVRFVRFPEENHELSRSGRPDRRLTRLNEYFAWLERWL | failed |
